Measurements reported in paper PMC5969902.
Several values for one entry are separate records, joined by “and”; a condition that tells them apart may be missing. Equal values may be shown once.

Columns and labels:
mDia1 FH1 = mDia1 FH1 (UniProt O08808); details: cited from earlier work
[1] = molecular target: actin filament barbed ends elongating from unlabeled rabbit skeletal muscle actin (rabbit) (UniProt P68135); assay: single-filament microfluidics with fluorescence microscopy; survival of formin-bound barbed ends, exponential fit; 0.5 µM unlabeled actin, no profilin; KCl and configuration not given
[2] = molecular target: actin filament barbed ends elongating from unlabeled rabbit skeletal muscle actin (rabbit) (UniProt P68135); assay: single-filament microfluidics with fluorescence microscopy; survival of formin-bound barbed ends, exponential fit; 1 µM unlabeled actin, no profilin; KCl and configuration not given
[3] = molecular target: actin filament barbed ends elongating from unlabeled rabbit skeletal muscle actin (rabbit) (UniProt P68135); assay: single-filament microfluidics with fluorescence microscopy; survival of formin-bound barbed ends, exponential fit; 3 µM unlabeled actin, 5 µM profilin; KCl and configuration not given
[4] = molecular target: actin filament barbed ends elongating from unlabeled rabbit skeletal muscle actin (rabbit) (UniProt P68135); assay: single-filament microfluidics with fluorescence microscopy; survival of formin-bound barbed ends, exponential fit; 2 µM unlabeled actin, 5 µM profilin; KCl and configuration not given
[5] = molecular target: actin filament barbed ends elongating from unlabeled rabbit skeletal muscle actin (rabbit) (UniProt P68135); assay: single-filament microfluidics with fluorescence microscopy; survival of formin-bound barbed ends, exponential fit; 1 µM unlabeled actin, 5 µM profilin; KCl and configuration not given
[6] = molecular target: actin filament barbed ends elongating from unlabeled rabbit skeletal muscle actin (rabbit) (UniProt P68135); assay: single-filament microfluidics with fluorescence microscopy; survival of formin-bound barbed ends, exponential fit; 3 µM unlabeled actin, 10 µM profilin; KCl and configuration not given
[7] = molecular target: actin filament barbed ends elongating from unlabeled rabbit skeletal muscle actin (rabbit) (UniProt P68135); assay: single-filament microfluidics with fluorescence microscopy; survival of formin-bound barbed ends, exponential fit; 1 µM unlabeled actin, 10 µM profilin; KCl and configuration not given
[8] = molecular target: actin filament barbed ends elongating from unlabeled rabbit skeletal muscle actin (rabbit) (UniProt P68135); assay: single-filament microfluidics with fluorescence microscopy; survival of formin-bound barbed ends, exponential fit; 2 µM unlabeled actin, 10 µM profilin; KCl and configuration not given

Sequence of profilin (P07274 whole entry): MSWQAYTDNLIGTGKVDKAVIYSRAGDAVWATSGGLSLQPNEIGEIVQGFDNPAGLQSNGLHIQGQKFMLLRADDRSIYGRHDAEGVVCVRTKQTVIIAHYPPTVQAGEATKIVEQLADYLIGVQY

Substance	Kd (mDia1 FH1) [µM]	koff [1] [s⁻¹]	koff [2]	koff [3]	koff [4] [s⁻¹]	koff [5]	koff [6] [s⁻¹]	koff [7]	koff [8] [s⁻¹]
profilin (from UniProt P07274)	> 100	–	–	–	–	–	–	–	–
mDia1(FH2-DAD) (from UniProt O08808 1-1255) (domain or fragment)	–	0.004	0.0047 s⁻¹ and 0.0089 s⁻¹	0.0063 s⁻¹ and 0.0085 s⁻¹	0.0042	0.0031 s⁻¹ and 0.0025 s⁻¹ and 0.0051 s⁻¹	0.0064	0.0025 s⁻¹ and 0.0036 s⁻¹	0.00226
